Test results: US20160002331A1
pKd: −log10 of the molar value. Where two headings read alike, the source gives them in different places.

Tests used:
[1] = target: human Notch1 NRR_Avi_His recombinant protein (human) (UniProt P46531); test: SPR (Biacore T100), antibody captured by anti-human IgG-Fc, NRR_Avi_His as analyte, 1:1 Langmuir model
[2] = target: full-length human Notch1 expressed on the cell surface (human) (UniProt P46531); test: cell-based or functional assay
[3] = target: full-length mouse Notch1 expressed on the cell surface of U-2 OS cells (mouse) (UniProt Q01705); test: cell-based or functional assay
Chain of full-length mouse Notch1 expressed on the cell surface of U-2 OS cells (mouse) (Q01705 19-2531): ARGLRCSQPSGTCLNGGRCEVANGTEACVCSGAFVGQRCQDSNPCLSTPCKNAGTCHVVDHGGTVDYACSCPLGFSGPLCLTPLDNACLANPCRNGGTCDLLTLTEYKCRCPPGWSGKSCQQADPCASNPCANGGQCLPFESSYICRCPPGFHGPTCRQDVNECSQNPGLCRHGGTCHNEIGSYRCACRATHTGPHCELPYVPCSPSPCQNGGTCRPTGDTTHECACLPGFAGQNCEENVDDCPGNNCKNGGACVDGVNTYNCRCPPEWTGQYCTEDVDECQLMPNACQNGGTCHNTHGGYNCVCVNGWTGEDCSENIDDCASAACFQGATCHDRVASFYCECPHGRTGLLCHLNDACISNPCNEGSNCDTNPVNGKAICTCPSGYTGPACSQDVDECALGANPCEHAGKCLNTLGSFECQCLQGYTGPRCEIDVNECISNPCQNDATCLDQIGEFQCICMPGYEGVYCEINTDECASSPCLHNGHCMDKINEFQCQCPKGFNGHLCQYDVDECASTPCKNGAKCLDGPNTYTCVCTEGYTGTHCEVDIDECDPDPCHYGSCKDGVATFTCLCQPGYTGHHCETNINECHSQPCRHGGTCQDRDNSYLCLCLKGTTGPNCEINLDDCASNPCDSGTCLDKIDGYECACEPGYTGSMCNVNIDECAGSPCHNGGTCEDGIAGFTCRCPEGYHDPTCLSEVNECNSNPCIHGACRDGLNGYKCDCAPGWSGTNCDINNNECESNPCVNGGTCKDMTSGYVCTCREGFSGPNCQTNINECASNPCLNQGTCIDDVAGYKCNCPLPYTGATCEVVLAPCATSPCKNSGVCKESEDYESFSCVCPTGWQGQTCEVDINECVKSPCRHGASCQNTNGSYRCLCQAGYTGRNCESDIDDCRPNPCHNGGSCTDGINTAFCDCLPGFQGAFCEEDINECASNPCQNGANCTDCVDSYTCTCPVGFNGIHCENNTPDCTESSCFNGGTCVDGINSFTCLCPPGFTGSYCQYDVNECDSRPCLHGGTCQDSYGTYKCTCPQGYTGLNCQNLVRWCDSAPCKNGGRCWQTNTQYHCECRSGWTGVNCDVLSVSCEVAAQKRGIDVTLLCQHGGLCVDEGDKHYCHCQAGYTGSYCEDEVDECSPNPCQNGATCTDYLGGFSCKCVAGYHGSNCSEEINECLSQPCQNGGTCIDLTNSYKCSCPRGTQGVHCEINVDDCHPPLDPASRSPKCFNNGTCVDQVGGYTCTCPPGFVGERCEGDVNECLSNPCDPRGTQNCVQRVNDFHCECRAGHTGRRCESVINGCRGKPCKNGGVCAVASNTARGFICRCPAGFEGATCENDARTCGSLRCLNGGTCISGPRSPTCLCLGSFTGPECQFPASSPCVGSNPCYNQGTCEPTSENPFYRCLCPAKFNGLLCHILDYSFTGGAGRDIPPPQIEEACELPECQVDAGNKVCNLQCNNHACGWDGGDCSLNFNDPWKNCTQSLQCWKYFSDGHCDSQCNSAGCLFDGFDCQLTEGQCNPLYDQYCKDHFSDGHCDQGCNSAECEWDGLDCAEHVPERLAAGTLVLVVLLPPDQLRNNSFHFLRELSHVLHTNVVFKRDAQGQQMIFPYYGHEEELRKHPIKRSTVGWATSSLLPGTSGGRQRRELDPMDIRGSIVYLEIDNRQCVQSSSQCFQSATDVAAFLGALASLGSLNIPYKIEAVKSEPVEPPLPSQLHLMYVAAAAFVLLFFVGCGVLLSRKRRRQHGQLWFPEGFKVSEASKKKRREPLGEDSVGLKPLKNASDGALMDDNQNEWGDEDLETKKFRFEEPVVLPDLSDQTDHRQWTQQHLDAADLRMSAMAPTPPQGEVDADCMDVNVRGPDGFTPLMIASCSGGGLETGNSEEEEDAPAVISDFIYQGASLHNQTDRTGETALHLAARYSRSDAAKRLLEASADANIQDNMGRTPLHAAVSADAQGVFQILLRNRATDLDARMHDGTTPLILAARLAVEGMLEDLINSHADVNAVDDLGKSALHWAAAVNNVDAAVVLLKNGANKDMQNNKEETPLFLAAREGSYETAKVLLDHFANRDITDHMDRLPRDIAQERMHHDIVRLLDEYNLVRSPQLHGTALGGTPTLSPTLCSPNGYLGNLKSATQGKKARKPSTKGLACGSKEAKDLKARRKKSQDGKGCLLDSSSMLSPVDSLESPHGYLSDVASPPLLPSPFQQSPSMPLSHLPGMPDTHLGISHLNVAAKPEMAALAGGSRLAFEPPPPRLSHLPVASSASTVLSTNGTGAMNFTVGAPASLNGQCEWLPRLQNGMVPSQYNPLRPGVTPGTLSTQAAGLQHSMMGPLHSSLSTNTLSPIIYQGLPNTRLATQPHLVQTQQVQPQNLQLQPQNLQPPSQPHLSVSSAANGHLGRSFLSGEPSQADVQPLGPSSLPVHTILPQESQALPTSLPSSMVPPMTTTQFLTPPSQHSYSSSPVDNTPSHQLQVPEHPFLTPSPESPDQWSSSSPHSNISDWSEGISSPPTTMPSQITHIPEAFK

[4] = target: Notch1 receptor with a 12 amino acid insertion at position 1595 (CCRF-CEM cells) (UniProt P46531); test: cell-based or functional assay
Chain of Notch1 receptor with a 12 amino acid insertion at position 1595 (CCRF-CEM cells) (P46531 other isoform, or with tags, fused parts or gaps limits assumed): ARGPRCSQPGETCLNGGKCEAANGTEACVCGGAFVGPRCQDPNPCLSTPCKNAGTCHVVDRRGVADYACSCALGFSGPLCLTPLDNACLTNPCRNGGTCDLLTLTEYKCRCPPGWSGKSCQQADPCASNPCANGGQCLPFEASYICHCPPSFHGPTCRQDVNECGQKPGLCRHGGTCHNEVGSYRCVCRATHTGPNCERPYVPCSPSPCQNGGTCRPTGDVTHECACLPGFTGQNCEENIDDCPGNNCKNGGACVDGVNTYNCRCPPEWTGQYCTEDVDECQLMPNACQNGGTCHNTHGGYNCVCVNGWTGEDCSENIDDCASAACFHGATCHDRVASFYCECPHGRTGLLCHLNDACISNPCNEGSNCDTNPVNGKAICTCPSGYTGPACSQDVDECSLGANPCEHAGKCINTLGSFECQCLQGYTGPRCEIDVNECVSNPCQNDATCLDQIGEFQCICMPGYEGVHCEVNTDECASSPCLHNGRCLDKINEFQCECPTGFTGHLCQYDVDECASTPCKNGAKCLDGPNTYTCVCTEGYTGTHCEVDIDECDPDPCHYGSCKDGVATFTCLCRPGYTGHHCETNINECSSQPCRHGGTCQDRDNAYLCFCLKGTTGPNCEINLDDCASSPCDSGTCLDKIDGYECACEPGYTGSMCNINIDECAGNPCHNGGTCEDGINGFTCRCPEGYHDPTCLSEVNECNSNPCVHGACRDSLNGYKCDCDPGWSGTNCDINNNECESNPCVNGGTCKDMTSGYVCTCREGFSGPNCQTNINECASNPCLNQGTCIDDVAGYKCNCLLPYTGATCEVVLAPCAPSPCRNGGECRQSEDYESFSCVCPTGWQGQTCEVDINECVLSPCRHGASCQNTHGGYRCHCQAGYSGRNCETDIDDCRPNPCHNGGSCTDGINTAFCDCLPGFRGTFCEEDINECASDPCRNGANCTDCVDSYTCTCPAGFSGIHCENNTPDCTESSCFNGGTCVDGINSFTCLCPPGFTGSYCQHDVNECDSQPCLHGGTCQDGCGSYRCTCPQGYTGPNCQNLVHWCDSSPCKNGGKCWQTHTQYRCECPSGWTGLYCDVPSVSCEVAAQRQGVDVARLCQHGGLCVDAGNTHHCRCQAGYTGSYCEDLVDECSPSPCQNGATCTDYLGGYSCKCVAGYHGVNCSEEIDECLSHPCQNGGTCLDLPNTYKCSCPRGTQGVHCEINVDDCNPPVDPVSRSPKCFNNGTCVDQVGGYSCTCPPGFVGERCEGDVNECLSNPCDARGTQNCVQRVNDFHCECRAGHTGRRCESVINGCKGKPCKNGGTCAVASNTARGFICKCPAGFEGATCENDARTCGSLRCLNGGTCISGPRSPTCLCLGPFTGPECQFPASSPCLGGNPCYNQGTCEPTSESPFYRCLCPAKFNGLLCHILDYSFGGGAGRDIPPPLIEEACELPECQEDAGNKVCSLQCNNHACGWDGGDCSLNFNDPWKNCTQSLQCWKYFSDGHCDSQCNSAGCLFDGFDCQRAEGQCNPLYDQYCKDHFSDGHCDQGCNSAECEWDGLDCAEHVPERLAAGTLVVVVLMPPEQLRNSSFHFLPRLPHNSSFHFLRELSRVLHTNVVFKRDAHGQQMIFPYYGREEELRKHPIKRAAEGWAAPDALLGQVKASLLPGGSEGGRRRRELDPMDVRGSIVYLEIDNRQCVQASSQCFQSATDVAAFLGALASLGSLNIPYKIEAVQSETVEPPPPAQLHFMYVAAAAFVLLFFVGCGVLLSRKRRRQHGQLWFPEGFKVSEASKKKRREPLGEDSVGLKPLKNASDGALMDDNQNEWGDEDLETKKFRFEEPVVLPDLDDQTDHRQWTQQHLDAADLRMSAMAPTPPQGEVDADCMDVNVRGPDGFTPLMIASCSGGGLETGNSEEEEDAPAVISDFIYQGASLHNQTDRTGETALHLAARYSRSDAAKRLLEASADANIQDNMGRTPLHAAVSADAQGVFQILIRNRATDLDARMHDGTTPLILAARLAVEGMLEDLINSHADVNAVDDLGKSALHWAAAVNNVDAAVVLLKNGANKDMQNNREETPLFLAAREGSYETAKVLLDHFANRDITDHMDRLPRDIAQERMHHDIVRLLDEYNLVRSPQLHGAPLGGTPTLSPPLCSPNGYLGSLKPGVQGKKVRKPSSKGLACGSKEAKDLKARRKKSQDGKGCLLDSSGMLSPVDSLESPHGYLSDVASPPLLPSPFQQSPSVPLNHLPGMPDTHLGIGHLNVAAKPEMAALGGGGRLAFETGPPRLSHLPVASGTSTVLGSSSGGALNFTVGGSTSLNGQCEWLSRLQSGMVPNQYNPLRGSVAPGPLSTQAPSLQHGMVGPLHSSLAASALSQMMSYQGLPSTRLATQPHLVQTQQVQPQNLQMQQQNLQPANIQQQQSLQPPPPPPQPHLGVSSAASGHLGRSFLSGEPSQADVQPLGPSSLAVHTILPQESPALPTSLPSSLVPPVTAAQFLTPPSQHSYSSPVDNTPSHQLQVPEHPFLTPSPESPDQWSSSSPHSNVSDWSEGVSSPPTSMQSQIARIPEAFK

[5] = target: Notch1 receptor with L1575P mutation (HPB-ALL cells) (UniProt P46531); test: cell-based or functional assay
[6] = target: Notch1 receptor with L1594P mutation (ALL-SIL cells) (UniProt P46531); test: cell-based or functional assay
[7] = target: Notch1 receptor with a 17 amino acid insertion at position 1740 (Jurkat cells) (UniProt P46531); test: cell-based or functional assay
[8] = target: full-length human Notch1 expressed on the cell surface (human) (UniProt P46531); test: cell-based or functional assay; remark: listed apart in the source
[9] = target: full-length mouse Notch1 expressed on the cell surface of U-2 OS cells (mouse) (UniProt Q01705); test: cell-based or functional assay; remark: listed apart in the source
[10] = target: Notch1 receptor with L1601P mutation (MOLT-4 cells) (UniProt P46531); test: cell-based or functional assay
[11] = target: Notch1 receptor with L1594P/D1610V mutations (DND-41 cells) (UniProt P46531); test: cell-based or functional assay

A2 antibody (Wu, Y. et al., Nature 464:1052-1057, 2010)
pKd [1]: 8.53
Neutralization activity (Human RGA), % Inhibition [2]: 99.1%
Neutralization activity (Human RGA), IC50 [2]: 0.27 nM
Neutralization activity (murine RGA), % Inhibition [3]: 82%
Neutralization activity (murine RGA), IC50 [3]: 0.36 nM
Normalized Notch1^ICD level, CCRF-CEM cells, 0.001 µg/ml antibody (relative to untreated) [4]: 1.12
Normalized Notch1^ICD level, CCRF-CEM cells, 0.01 µg/ml antibody (relative to untreated) [4]: 1.28
Normalized Notch1^ICD level, CCRF-CEM cells, 0.1 µg/ml antibody (relative to untreated) [4]: 0.424
Normalized Notch1^ICD level, CCRF-CEM cells, 1 µg/ml antibody (relative to untreated) [4]: 0.048
Normalized Notch1^ICD level, CCRF-CEM cells, 10 µg/ml antibody (relative to untreated) [4]: 0.027
IC50, MTS viability assay of HPB-ALL leukemia cells [5]: 1.85 nM
Normalized Notch1^ICD level, HPB-ALL cells, 0.001 µg/ml antibody (relative to untreated) [5]: 0.852
Normalized Notch1^ICD level, HPB-ALL cells, 0.01 µg/ml antibody (relative to untreated) [5]: 1.15
Normalized Notch1^ICD level, HPB-ALL cells, 0.1 µg/ml antibody (relative to untreated) [5]: 0.33
Normalized Notch1^ICD level, HPB-ALL cells, 1 µg/ml antibody (relative to untreated) [5]: 0.038
Normalized Notch1^ICD level, HPB-ALL cells, 10 µg/ml antibody (relative to untreated) [5]: 0.041
Normalized Notch1^ICD level, ALL-SIL cells, 0.001 µg/ml antibody (relative to untreated) [6]: 1.56
Normalized Notch1^ICD level, ALL-SIL cells, 0.01 µg/ml antibody (relative to untreated) [6]: 1.31
Normalized Notch1^ICD level, ALL-SIL cells, 0.1 µg/ml antibody (relative to untreated) [6]: 0.068
Normalized Notch1^ICD level, ALL-SIL cells, 1 µg/ml antibody (relative to untreated) [6]: 0.033
Normalized Notch1^ICD level, ALL-SIL cells, 10 µg/ml antibody (relative to untreated) [6]: 0.043
Normalized Notch1^ICD level, Jurkat cells, 0.001 µg/ml antibody (relative to untreated) [7]: 1.2
Normalized Notch1^ICD level, Jurkat cells, 0.01 µg/ml antibody (relative to untreated) [7]: 1.17
Normalized Notch1^ICD level, Jurkat cells, 0.1 µg/ml antibody (relative to untreated) [7]: 0.983
Normalized Notch1^ICD level, Jurkat cells, 1 µg/ml antibody (relative to untreated) [7]: 1.15
Normalized Notch1^ICD level, Jurkat cells, 10 µg/ml antibody (relative to untreated) [7]: 1.59
Firefly/Renilla Luminescence, human Notch1 reporter cells + 5 mM EDTA, 0.01 µg/mL antibody (Firefly/Renilla ratio) [8]: 312
Firefly/Renilla Luminescence, human Notch1 reporter cells + 5 mM EDTA, 0.1 µg/mL antibody (Firefly/Renilla ratio) [8]: 172
Firefly/Renilla Luminescence, human Notch1 reporter cells + 5 mM EDTA, 1 µg/mL antibody (Firefly/Renilla ratio) [8]: 89.9
Firefly/Renilla Luminescence, human Notch1 reporter cells + 5 mM EDTA, 10 µg/mL antibody (Firefly/Renilla ratio) [8]: 63.5
Firefly/Renilla Luminescence, human Notch1 reporter cells + 5 mM EDTA, 30 µg/mL antibody (Firefly/Renilla ratio) [8]: 55.2
IC50, Notch1 signaling inhibition co-culture reporter assay [8]: 0.18 nM
IC50, human Notch1 reporter gene co-culture assay (DLL4-HEK293) [8]: 0.31 nM
Maximal Inhibition (%), Notch1 signaling inhibition co-culture reporter assay [8]: 97.7%
Neutralization activity (Human RGA), % Inhibition (maximal) [8]: 100%
Neutralization activity (Human RGA), IC50 [8]: 0.3 nM
Normalized Notch1^ICD level, CCD1076SK fibroblasts on DLL4, 0.001 µg/ml antibody (relative to untreated) [8]: 0.748
Normalized Notch1^ICD level, CCD1076SK fibroblasts on DLL4, 0.01 µg/ml antibody (relative to untreated) [8]: 0.402
Normalized Notch1^ICD level, CCD1076SK fibroblasts on DLL4, 0.1 µg/ml antibody (relative to untreated) [8]: 0.003
Normalized Notch1^ICD level, CCD1076SK fibroblasts on DLL4, 1 µg/ml antibody (relative to untreated) [8]: 0.003
Normalized Notch1^ICD level, CCD1076SK fibroblasts on DLL4, 10 µg/ml antibody (relative to untreated) [8]: 0.006
IC50, mouse Notch1 reporter gene co-culture assay (DLL4-HEK293) [9]: 0.32 nM
Neutralization activity (murine RGA), % Inhibition (maximal) [9]: 86%
Neutralization activity (murine RGA), IC50 [9]: 0.2 nM
Normalized Notch1^ICD level, MOLT-4 cells, 0.01 µg/ml antibody (relative to untreated) [10]: 0.962
Normalized Notch1^ICD level, MOLT-4 cells, 0.1 µg/ml antibody (relative to untreated) [10]: 0.644
Normalized Notch1^ICD level, MOLT-4 cells, 10 µg/ml antibody (relative to untreated) [10]: 0.043
Normalized Notch1^ICD level, DND-41 cells, 0.001 µg/ml antibody (relative to untreated) [11]: 0.787
Normalized Notch1^ICD level, DND-41 cells, 0.01 µg/ml antibody (relative to untreated) [11]: 0.84
Normalized Notch1^ICD level, DND-41 cells, 0.1 µg/ml antibody (relative to untreated) [11]: 0.479
Normalized Notch1^ICD level, DND-41 cells, 1 µg/ml antibody (relative to untreated) [11]: 0.199
Normalized Notch1^ICD level, DND-41 cells, 10 µg/ml antibody (relative to untreated) [11]: 0.114

control anti-E. tenella antibody
Firefly/Renilla Luminescence, human Notch1 reporter cells + 5 mM EDTA, 0.01 µg/mL antibody (Firefly/Renilla ratio) [8]: 267
Firefly/Renilla Luminescence, human Notch1 reporter cells + 5 mM EDTA, 0.1 µg/mL antibody (Firefly/Renilla ratio) [8]: 299
Firefly/Renilla Luminescence, human Notch1 reporter cells + 5 mM EDTA, 1 µg/mL antibody (Firefly/Renilla ratio) [8]: 278
Firefly/Renilla Luminescence, human Notch1 reporter cells + 5 mM EDTA, 10 µg/mL antibody (Firefly/Renilla ratio) [8]: 257
Firefly/Renilla Luminescence, human Notch1 reporter cells + 5 mM EDTA, 30 µg/mL antibody (Firefly/Renilla ratio) [8]: 229
